Degranulation assay, CD107a upregulation on TCR+ CAR19+ T cells after 4 hr with CD19+ Daudi, degranulation assay, CD107a upregulation on TCR- CAR19+ T cells after 4 hr with CD19+ Daudi and percent of cells with CD16 and IgG co-staining data for two substances are collected here from US20200087681A1.

Test [1] has as its target CD19 (UniProt P15391). In words: cell-based or functional assay.
Test [2] deals with human serum immunoglobulin (IgG) (human). The test can be described thus: flow cytometry of cFcR-transduced human T cells incubated with human serum IgG, co-stained for CD16 and IgG.

Sequence of UniProt P15391 (P15391 20-556 limits assumed): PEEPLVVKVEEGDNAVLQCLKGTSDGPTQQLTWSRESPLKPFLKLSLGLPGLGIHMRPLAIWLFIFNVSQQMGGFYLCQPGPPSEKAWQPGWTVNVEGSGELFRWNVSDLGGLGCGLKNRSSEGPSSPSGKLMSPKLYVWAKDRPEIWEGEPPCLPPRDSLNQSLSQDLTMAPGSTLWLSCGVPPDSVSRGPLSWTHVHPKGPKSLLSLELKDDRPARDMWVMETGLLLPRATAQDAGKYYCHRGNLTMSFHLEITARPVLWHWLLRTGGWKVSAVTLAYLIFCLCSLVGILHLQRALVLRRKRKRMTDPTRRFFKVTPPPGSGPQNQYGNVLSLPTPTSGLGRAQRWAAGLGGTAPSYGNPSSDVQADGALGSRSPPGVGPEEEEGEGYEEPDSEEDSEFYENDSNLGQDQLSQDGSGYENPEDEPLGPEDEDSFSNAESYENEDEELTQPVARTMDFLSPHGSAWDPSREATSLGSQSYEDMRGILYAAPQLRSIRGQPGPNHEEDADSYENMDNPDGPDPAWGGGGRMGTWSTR

In test [1], “CD3z-41BB-CD8-CAR19scFv (4G7) chimeric antigen receptor (CAR19) (from UniProt P01732 138-206; Q07011 214-255; P20963 52-164)” yielded a degranulation assay, CD107a upregulation on TCR+ CAR19+ T cells after 4 hr with CD19+ Daudi of 53% and a degranulation assay, CD107a upregulation on TCR- CAR19+ T cells after 4 hr with CD19+ Daudi of 57%.
For “chimeric FcR (cFcR) (from UniProt P08637 17-208; P01732 138-206; Q07011 214-255; P20963 52-164) (receptor)”, in test [2], the percent of cells with CD16 and IgG co-staining was found to be 7.5%.
